Where no end group is shown, it is not given here. [ ]: non-standard residue; d: D form. pY = N[C@@H](Cc1ccc(OP(=O)(O)O)cc1)C(=O)O
T1: Human MRE11 core (residues 1-411), bacterially expressed and purified (human, UniProt P49959 1-411)
T1 construct: range 1-411; the only purified MRE11 described is the 1-411 core; also called human MRE11 (residue 1-411); bacterially purified MRE11
T1 sequence (looked up): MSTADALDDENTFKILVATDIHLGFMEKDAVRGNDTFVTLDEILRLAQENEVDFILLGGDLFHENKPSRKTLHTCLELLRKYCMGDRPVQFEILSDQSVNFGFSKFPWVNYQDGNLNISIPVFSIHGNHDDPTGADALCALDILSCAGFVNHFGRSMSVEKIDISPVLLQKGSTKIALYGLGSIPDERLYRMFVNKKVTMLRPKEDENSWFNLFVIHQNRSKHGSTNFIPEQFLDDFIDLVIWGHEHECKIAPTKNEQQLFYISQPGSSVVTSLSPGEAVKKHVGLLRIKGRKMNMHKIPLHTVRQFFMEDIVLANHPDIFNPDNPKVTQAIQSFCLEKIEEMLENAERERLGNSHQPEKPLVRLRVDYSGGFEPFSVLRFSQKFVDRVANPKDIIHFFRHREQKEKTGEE

T2: NBS1, endogenous, in HEK293T cell extracts (UniProt O60934 1-754)
T2 sequence (looked up): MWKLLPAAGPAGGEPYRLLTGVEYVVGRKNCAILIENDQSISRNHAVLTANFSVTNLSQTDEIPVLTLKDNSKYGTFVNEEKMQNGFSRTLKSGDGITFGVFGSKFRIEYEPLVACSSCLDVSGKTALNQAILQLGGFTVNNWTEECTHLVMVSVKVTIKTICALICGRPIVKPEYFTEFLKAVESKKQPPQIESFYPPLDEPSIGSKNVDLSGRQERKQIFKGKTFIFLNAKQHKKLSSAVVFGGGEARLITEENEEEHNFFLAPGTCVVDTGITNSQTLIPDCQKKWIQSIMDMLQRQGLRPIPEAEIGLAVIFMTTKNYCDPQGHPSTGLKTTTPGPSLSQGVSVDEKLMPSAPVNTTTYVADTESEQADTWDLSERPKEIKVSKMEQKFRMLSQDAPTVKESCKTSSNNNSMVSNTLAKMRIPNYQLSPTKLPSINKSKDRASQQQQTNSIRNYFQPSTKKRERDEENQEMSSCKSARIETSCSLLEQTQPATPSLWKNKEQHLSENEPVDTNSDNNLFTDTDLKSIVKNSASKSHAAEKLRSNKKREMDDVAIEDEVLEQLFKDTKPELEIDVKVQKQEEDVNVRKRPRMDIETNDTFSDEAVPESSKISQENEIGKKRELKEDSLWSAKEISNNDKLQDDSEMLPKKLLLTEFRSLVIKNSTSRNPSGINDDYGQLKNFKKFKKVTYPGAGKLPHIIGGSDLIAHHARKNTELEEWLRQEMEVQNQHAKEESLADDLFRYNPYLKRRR

T3: Flag-RAD50 expressed in HEK293T cells (UniProt Q92878 1-1312, limits assumed)
T3 construct: not shown: Flag tag
T3 sequence (looked up): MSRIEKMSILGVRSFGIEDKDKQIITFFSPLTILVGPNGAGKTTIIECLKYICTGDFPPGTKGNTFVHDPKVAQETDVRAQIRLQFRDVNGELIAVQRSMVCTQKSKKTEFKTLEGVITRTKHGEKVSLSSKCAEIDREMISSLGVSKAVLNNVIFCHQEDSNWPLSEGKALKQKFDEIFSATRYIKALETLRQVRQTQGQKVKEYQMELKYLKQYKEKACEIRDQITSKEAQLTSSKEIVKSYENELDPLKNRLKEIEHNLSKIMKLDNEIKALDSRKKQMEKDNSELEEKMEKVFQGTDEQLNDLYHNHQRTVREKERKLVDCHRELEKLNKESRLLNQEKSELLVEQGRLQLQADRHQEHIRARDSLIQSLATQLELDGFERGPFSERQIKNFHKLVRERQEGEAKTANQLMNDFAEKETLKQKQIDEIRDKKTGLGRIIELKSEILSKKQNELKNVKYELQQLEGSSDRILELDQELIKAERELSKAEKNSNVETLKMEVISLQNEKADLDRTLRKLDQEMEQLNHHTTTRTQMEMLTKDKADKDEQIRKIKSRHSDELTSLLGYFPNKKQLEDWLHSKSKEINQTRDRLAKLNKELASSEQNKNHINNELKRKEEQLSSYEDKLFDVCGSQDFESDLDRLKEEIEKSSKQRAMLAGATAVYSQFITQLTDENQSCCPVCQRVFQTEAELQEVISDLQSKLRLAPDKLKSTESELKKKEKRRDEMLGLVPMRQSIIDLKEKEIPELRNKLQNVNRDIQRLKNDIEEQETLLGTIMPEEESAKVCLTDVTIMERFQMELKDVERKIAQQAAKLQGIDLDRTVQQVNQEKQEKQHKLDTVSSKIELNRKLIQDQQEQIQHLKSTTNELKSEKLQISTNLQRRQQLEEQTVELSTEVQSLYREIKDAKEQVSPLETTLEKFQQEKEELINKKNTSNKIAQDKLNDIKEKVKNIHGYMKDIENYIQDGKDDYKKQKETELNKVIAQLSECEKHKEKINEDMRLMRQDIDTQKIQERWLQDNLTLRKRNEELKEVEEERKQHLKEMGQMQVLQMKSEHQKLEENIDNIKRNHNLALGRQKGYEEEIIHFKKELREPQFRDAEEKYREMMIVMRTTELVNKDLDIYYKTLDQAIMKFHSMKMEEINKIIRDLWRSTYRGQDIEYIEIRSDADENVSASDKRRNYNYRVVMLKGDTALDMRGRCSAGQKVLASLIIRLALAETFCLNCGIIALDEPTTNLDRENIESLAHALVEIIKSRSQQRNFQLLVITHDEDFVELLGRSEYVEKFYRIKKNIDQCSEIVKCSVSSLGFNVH

B1: GST-fused GRB2 N-terminal SH3 (nSH3) domain (other, UniProt P62993 1-58, looked up)
chain: MEAIAKYDFKATADDELSFKRGDILKVLNEECDQNWYKAELNGKDGFIPKNYIEMKPH
notes: domain: N-terminal SH3 (nSH3); not shown: glutathione S-transferase (GST)
B2: Flag-MRE11 expressed in HEK293T cells (enzyme, UniProt P49959 1-708, looked up)
chain: MSTADALDDENTFKILVATDIHLGFMEKDAVRGNDTFVTLDEILRLAQENEVDFILLGGDLFHENKPSRKTLHTCLELLRKYCMGDRPVQFEILSDQSVNFGFSKFPWVNYQDGNLNISIPVFSIHGNHDDPTGADALCALDILSCAGFVNHFGRSMSVEKIDISPVLLQKGSTKIALYGLGSIPDERLYRMFVNKKVTMLRPKEDENSWFNLFVIHQNRSKHGSTNFIPEQFLDDFIDLVIWGHEHECKIAPTKNEQQLFYISQPGSSVVTSLSPGEAVKKHVGLLRIKGRKMNMHKIPLHTVRQFFMEDIVLANHPDIFNPDNPKVTQAIQSFCLEKIEEMLENAERERLGNSHQPEKPLVRLRVDYSGGFEPFSVLRFSQKFVDRVANPKDIIHFFRHREQKEKTGEEINFGKLITKPSEGTTLRVEDLVKQYFQTAEKNVQLSLLTERGMGEAVQEFVDKEEKDAIEELVKYQLEKTQRFLKERHIDALEDKIDEEVRRFRETRQKNTNEEDDEVREAMTRARALRSQSEESASAFSADDLMSIDLAEQMANDSDDSISAATNKGRGRGRGRRGGRGQNSASRGGSQRGRADTGLETSTRSRNSKTAVSASRNMSIIDAFKSTRQQPSRNVTTKNYSEVIEVDESDVEEDIFPTTSKTDQRWSSTSSSKIMSQSQVSKGVDFESSEDDDDDPFMNTSSLRRNRR
notes: not shown: Flag tag
B3: MRE11, endogenous, in extracts of human cell lines (HEK293T, HeLa, U2OS) (enzyme, UniProt P49959 2-708, looked up)
chain: STADALDDENTFKILVATDIHLGFMEKDAVRGNDTFVTLDEILRLAQENEVDFILLGGDLFHENKPSRKTLHTCLELLRKYCMGDRPVQFEILSDQSVNFGFSKFPWVNYQDGNLNISIPVFSIHGNHDDPTGADALCALDILSCAGFVNHFGRSMSVEKIDISPVLLQKGSTKIALYGLGSIPDERLYRMFVNKKVTMLRPKEDENSWFNLFVIHQNRSKHGSTNFIPEQFLDDFIDLVIWGHEHECKIAPTKNEQQLFYISQPGSSVVTSLSPGEAVKKHVGLLRIKGRKMNMHKIPLHTVRQFFMEDIVLANHPDIFNPDNPKVTQAIQSFCLEKIEEMLENAERERLGNSHQPEKPLVRLRVDYSGGFEPFSVLRFSQKFVDRVANPKDIIHFFRHREQKEKTGEEINFGKLITKPSEGTTLRVEDLVKQYFQTAEKNVQLSLLTERGMGEAVQEFVDKEEKDAIEELVKYQLEKTQRFLKERHIDALEDKIDEEVRRFRETRQKNTNEEDDEVREAMTRARALRSQSEESASAFSADDLMSIDLAEQMANDSDDSISAATNKGRGRGRGRRGGRGQNSASRGGSQRGRADTGLETSTRSRNSKTAVSASRNMSIIDAFKSTRQQPSRNVTTKNYSEVIEVDESDVEEDIFPTTSKTDQRWSSTSSSKIMSQSQVSKGVDFESSEDDDDDPFMNTSSLRRNRR
B4: GST-fused GRB2 C-terminal SH3 (cSH3) domain (other, UniProt P62993 156-217, looked up)
chain: QQPTYVQALFDFDPQEDGELGFRRGDFIHVMDNSDPNWWKGACHGQTGMFPRNYVTPVNRNV
notes: domain: C-terminal (cSH3); not shown: glutathione S-transferase (GST)
B5: RPA70 N-terminal domain (residues 1-120), purified (other, UniProt P27694 1-120, looked up)
chain: MVGQLSEGAIAAIMQKGDTNIKPILQVINIRPITTGNSPPRYRLLMSDGLNTLSSFMLATQLNPLVEEEQLSSNCVCQIHRFIVNTLKDGRRVVILMELEVLKSAEAVGVKIGNPVPYNE
modifications: Atto488 label
notes: range 1-120; also called RPA70 N-terminal OB1 domain; RPA70N (1-120)
B6: Tyrosine-phosphorylated MRE11 peptide WVNpYQDGNLN (peptide)
peptide: WVN[pY]QDGNLN
modifications: not fully specified
notes: also called Y111 phosphorylated MRE11 peptide; tyrosine phosphorylated peptide
B7: Phosphorylated H2AX peptide PSGGKKATQA(pS)QEY (pS139 only) (peptide)
peptide: PSGGKKATQAXQEY
modifications: phosphoserine at position 11 (S139 of H2AX)
notes: Synthetic, from GenScript; also called pS139 H2AX
B8: GRB2 OB1 peptide KYDFKATADDELSFKRG (peptide)
peptide: KYDFKATADDELSFKRG
notes: Synthetic, from GenScript; also called GRB2-derived OB1 peptide
B9: Phosphorylated H2AX peptide PSGGKKATQASQE(pY) (pY142 only) (peptide)
peptide: PSGGKKATQASQEX
modifications: phosphotyrosine at position 14 (Y142 of H2AX)
notes: Synthetic, from GenScript; also called pY142 H2AX

What was measured:
[1] = biological target: T1, Human MRE11 core (residues 1-411), …; test: GST pull-down of bacterially expressed, purified human MRE11, western blot [panel C]
[2] = biological target: T2, NBS1, endogenous, in HEK293T cell …; test: Flag-M2 immunoprecipitation from HEK293T cells, unperturbed or 5 Gy IR, western blot
[3] = biological target: T4, Flag-tagged POLQ (polymerase theta) overexpressed in HEK293T cells (UniProt O75417 1-2590, limits assumed); test: Flag immunoprecipitation from HEK293T cells with or without 5 Gy IR, western blot [panel C]
T4 construct: also called Flag-POLQ; not shown: Flag tag
T4 sequence (O75417 whole entry): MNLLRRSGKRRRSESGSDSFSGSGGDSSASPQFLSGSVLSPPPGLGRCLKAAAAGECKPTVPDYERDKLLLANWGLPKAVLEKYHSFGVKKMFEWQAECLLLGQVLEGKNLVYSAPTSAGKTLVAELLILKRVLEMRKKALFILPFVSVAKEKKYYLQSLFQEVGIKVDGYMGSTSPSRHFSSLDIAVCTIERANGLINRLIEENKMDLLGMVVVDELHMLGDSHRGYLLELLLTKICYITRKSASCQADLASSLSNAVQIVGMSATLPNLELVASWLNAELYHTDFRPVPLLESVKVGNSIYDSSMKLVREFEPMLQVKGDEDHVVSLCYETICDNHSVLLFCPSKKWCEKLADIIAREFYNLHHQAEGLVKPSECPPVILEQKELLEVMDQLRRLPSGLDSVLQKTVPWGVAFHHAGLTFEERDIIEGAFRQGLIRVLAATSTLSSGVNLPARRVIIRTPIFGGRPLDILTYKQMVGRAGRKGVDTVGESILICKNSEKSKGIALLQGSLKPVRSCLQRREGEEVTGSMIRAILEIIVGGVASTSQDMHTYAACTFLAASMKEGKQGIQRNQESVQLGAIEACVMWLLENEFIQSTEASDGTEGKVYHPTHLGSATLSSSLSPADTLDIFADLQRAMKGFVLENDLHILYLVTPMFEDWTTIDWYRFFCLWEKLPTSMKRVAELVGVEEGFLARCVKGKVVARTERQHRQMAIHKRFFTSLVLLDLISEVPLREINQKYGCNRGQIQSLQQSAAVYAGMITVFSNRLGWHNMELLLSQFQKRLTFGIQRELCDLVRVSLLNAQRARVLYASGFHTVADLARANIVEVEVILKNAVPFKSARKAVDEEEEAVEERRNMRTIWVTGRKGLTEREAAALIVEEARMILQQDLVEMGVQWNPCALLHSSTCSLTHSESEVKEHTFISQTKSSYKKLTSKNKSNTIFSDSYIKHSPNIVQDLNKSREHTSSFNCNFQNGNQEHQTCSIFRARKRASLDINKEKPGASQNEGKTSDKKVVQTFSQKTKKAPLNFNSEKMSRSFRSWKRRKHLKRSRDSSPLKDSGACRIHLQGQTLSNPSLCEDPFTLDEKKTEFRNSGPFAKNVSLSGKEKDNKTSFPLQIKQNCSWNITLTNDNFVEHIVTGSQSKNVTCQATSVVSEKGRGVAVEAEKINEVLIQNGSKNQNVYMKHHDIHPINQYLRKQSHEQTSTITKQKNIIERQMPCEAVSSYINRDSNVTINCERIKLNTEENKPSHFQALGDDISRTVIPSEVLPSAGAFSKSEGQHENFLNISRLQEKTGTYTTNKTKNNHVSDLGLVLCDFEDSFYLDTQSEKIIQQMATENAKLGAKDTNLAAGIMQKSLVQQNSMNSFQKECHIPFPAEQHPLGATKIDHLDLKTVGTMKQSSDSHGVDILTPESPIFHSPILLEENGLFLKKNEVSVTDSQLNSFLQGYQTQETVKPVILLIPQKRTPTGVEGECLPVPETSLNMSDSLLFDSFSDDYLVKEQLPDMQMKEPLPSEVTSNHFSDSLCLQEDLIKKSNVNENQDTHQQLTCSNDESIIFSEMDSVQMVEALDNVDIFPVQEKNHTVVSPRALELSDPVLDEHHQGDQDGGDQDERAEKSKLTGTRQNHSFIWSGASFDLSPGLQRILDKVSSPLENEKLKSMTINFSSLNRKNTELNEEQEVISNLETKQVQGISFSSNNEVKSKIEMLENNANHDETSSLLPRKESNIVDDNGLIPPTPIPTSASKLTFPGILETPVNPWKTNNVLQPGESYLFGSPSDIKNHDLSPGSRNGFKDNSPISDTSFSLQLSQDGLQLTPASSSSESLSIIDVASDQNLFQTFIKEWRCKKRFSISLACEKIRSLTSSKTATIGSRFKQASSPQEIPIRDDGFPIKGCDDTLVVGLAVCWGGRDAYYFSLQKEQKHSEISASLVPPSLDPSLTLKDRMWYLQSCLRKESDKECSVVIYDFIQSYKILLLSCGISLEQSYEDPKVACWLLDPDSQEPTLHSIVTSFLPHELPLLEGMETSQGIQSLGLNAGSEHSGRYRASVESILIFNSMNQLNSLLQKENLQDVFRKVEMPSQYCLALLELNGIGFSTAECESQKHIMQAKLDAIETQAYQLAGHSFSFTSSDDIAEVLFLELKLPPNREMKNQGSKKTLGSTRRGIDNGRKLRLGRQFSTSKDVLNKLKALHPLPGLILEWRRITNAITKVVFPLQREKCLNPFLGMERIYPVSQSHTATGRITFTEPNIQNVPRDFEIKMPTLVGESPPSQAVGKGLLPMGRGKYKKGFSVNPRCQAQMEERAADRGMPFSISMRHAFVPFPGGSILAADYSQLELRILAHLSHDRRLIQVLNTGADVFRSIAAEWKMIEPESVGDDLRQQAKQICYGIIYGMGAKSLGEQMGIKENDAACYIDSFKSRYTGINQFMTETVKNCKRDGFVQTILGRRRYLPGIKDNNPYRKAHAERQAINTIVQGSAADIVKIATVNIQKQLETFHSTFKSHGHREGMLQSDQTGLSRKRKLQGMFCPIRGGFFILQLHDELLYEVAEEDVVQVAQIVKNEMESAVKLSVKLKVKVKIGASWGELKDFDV

[4] = biological target: T3, Flag-RAD50 expressed in HEK293T cells; test: Flag-M2 immunoprecipitation from HEK293T cells co-transfected with RFP-GRB2, western blot [panel E]
[5] = biological target: T5, RPA70, endogenous, in HEK293T cell extracts (UniProt P27694 1-616); test: GST pull-down from HEK293T cell extracts, western blot [panel B]
T5 construct: also called RPA1

[6] = biological target: T6, GRB2 (growth factor receptor-bound protein 2), wild-type, full-length, bacterially expressed and purified (UniProt P62993 1-217, Atto488 label where used as the labelled partner in MST); test: MST, 50 nM Atto488-labelled RPA70 N-terminal domain (1-120), GRB2 titrated [panel D]
T6 construct: domain: full-length; also called WTGRB2; non-ubiquitinated GRB2

[7] = biological target: T6, GRB2 (growth factor receptor-bound …); test: MST with the Y111 phosphorylated MRE11 peptide
[8] = biological target: T7, GRB2-SH2 domain, purified, Atto488-labelled (UniProt P62993 60-152, limits assumed, Atto488 label); test: MST with the Y111 phosphorylated MRE11 peptide
T7 construct: domain: SH2; Individual GRB2 domains generated as described before (Ahmed et al., 2010)

[9] = biological target: T8, GRB2 K109R mutant, bacterially expressed and purified (UniProt P62993 1-217, Atto488 label in MST); test: MST, 100 nM Atto488-labelled K109R GRB2, peptide titrated
T8 construct: domain: full-length; also called K109RGRB2; K109R GRB2 mutant

[10] = biological target: T7, GRB2-SH2 domain, purified, …; test: MST; 100 nM Atto488-labelled GRB2-SH2 domain, peptide titrated; unphosphorylated MRE11 peptide
[11] = biological target: T7, GRB2-SH2 domain, purified, …; test: MST, 100 nM Atto488-labelled GRB2-SH2 domain, peptide titrated
[12] = biological target: B5; test: MST, 50 nM Atto488-labelled RPA70 N-terminal domain (1-120), peptide titrated [panel D]

B1: no binding [1].

B2: binds [2].

B3: binds [3]; binds [4].

B4: no binding [5].

Work on B5 yielded a Kd [6] of 1.6 µM.

B6 showed a Kd [7] of 19.7 µM and a Kd [8] of 46.8 µM.

In the case of WVNYQDGNLN [MRE11 peptide WVNYQDGNLN], the Kd [9] is reported as greater than 200 µM and the Kd [10] is reported as 33 µM.

B7: no binding [11].

In the case of B8, the Kd [12] is reported as 2.1 µM.

B9: no binding (tested: about 50 µM) [11].

From patent publication US20230366033A1 (University of Texas, published 2023)
